The experiment addresses GST–hEST1A (recombinant full-length human EST1A/SMG6 as N-terminal GST fusion) (human) (UniProt Q86US8). Briefly: pull-down.

Values joined by “and” are separate entries in the source; they are usually repeats but may differ in a detail not shown here. Equal entries are not always repeated.

Sequence of UniProt Q86US8 (Q86US8 whole entry, the tested form may be a part): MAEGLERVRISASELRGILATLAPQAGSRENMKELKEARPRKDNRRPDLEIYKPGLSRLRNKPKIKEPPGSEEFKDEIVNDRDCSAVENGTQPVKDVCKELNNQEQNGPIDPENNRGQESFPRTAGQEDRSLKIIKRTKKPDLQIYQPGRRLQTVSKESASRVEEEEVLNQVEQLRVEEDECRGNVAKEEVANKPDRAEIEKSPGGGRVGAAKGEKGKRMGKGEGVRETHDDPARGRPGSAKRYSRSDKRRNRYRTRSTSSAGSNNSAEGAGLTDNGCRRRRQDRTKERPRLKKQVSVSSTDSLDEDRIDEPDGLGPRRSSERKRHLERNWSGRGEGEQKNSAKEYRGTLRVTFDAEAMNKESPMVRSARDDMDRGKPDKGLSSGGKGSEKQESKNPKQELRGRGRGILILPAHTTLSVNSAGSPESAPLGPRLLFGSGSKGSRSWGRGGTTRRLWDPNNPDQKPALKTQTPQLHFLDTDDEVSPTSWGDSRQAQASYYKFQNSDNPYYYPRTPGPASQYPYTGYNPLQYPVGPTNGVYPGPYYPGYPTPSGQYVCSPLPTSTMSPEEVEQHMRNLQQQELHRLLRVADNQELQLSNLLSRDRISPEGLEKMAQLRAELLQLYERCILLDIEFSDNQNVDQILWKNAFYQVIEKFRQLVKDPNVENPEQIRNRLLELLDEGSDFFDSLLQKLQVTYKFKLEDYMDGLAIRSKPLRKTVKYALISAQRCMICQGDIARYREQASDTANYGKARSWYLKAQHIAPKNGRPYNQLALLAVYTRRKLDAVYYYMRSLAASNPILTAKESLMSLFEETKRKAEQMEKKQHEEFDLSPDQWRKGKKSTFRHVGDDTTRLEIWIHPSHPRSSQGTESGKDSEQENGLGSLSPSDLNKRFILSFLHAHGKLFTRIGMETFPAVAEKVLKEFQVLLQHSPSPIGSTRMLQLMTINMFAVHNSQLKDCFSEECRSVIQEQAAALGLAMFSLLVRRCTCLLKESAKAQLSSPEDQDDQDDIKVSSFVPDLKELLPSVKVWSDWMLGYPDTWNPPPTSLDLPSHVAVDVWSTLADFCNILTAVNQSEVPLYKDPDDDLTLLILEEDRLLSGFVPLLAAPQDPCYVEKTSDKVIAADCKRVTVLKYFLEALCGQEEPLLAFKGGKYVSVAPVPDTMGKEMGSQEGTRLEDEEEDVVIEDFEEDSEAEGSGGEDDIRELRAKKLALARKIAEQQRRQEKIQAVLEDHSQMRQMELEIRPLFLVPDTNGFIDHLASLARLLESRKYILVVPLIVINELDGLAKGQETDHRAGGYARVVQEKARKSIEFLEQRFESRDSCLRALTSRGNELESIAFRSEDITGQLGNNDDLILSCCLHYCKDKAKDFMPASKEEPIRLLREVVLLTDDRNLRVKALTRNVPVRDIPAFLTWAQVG

With “telomerase, expressed and reconstituted in insect cells or in RRL”, the percent of telomerase activity associated with the beads is 10 percent and 30 percent.

Values taken from PMC2175296.
